Patent US20200299384A1 (published 2020)
Like-named read-outs stand apart in the source and are kept apart here.

T1: Cynomolgus Monkey CD3 epsilon protein (Cynomolgus monkey, UniProt Q95LI5 22-117)
T1 construct: Bought protein; also called Cyno-Monkey CD3epsilon
T1 sequence (looked up): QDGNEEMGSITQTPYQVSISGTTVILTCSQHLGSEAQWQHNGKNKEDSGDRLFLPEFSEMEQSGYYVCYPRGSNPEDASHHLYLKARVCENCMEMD


Legend:
[1] = target: T2, human CD3 expressed on cells (Jurkat cells; human CD4 T cells) (human, UniProt P07766 23-207); assay: flow cytometry on Jurkat cells
T2 construct: whole, on cells; also called human CD3 receptor on T cell surface; human CD3 expressing cells (Jurkat cells)
Experimental: Various concentrations of testing mAbs were added to Jurkat cells, and then the binding activity of mAbs onto the surface of cells was detected by 2nd antibody-FITC. OKT3 was used as the positive control. The stained cells were analyzed by using a BD Biosciences FACSCanto II instrument and Flow Jo Version software. The binding EC₅₀ were calculated by using GraphPad Prism software equation: Nonlinear regression (curve fit)—log (agonist) vs. response-Variable slope.

[2] = target: T3, Human CD3 delta (CD3 delta) protein (His Tag) (human, UniProt P04234 22-105); assay: ELISA, antigen coated on plate, HRP-labelled 2nd antibody
T3 construct: extracellular domain; Bought protein; not shown: His tag
Experimental: (§1) Human CD3epsilon, CD3delta and CD3gamma proteins were pre-coated in 96-well plates, respectively. The binding affinity of eight mAbs at various concentrations to these three different CD3 protein extracellular domain was detected by corresponding HRP labeled 2nd antibodies. The binding EC₅₀ (concentration of the test antibody when reaching half maximum binding) were analyzed by using GraphPad Prism software equation: Nonlinear regression (curve fit)—log (agonist) vs. response-Variable slope.

[3] = target: T4, Human CD3 Gamma (CD3gamma) protein (human, UniProt P09693 23-116); assay: as above
T4 construct: extracellular domain; Bought protein
Experimental: as §1

[4] = target: T5, Human CD3 epsilon (CD3epsilon) protein (His Tag) (human, UniProt P07766 23-126); assay: as above
T5 construct: extracellular domain; Bought protein; also called recombinant human CD3epsilon ECD; not shown: His tag
Experimental: as §1

[5] = target: T2, human CD3 expressed on cells (Jurkat …); assay: flow cytometry on Jurkat cells, one site saturation fit; set-up: Best fit-Bmax: unit not given here
[6] = target: T3, Human CD3 delta (CD3 delta) protein …; assay: ELISA, antigen coated on plate
[7] = target: T4, Human CD3 Gamma (CD3gamma) protein; assay: ELISA, antigen coated on plate
[8] = target: T2, human CD3 expressed on cells (Jurkat …); assay: flow cytometry on human CD4 T cells
[9] = target: T1, Cynomolgus Monkey CD3 epsilon protein; assay: ELISA, antigen coated on plate
[10] = target: T5, Human CD3 epsilon (CD3epsilon) protein …; assay: ELISA, antigen coated on plate
[11] = target: T1, Cynomolgus Monkey CD3 epsilon protein; assay: ELISA, antigen coated on plate; remark: listed apart in the source
[12] = target: T5, Human CD3 epsilon (CD3epsilon) protein …; assay: ELISA, antigen coated on plate; remark: listed apart in the source
mouse CD3epsilon protein [13] = target: T6, mouse CD3epsilon protein (mouse, UniProt P22646 22-108, limits assumed); assay: ELISA, antigen coated on plate
mouse CD3epsilon protein [14] = target: T6, mouse CD3epsilon protein; assay: ELISA, antigen coated on plate; remark: listed apart in the source
[15] = target: T1, Cynomolgus Monkey CD3 epsilon protein; assay: ELISA, antigen coated on plate; remark: listed apart in the source
[16] = target: T2, human CD3 expressed on cells (Jurkat …); assay: flow cytometry on Jurkat cells, one site saturation fit

T2 sequence (P07766 23-207): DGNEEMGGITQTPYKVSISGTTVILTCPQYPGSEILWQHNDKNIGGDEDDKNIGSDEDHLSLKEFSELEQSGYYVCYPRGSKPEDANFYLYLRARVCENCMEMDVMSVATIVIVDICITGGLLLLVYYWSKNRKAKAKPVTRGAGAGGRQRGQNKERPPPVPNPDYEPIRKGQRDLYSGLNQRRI
T4 sequence (P09693 23-116): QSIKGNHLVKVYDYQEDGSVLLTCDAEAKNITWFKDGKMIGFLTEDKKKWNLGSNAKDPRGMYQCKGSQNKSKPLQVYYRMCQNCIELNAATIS
T3 sequence (P04234 22-105, stated change not applied): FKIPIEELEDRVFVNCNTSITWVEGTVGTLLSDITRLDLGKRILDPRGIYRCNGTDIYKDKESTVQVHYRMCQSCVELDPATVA
T5 sequence (P07766 23-126): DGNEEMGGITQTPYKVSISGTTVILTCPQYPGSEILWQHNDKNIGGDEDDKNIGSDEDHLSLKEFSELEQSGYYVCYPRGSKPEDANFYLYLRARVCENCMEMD
T6 sequence (P22646 22-108 limits assumed): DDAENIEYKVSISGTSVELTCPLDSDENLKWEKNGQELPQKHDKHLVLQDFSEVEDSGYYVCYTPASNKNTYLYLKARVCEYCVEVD

Binder	EC50 [1]	MFI (FACS) [1]	ELISA (A450) [2]	ELISA (A450) [3]	ELISA (A450) [4]	Best fit-Bmax [5]	Kd [5]	binding result [6]	binding result [7]	EC50 [8]	ELISA (A450) [9]	ELISA (A450) [10]	EC50 [11]	EC50 [12]	binding result (mouse CD3epsilon protein [13])	ELISA (A450) (mouse CD3epsilon protein [14])	EC50 [15]	Kd [16]
WBP3311_2.306.4 (antibody, IgG2b, V domains shown, Mouse monoclonal antibody from hybridoma; also called W3311-2.306.4; W3311-2.306.4-mIgG2bK) VH: QVQLQQSGPELVKPGASVRISCKASGFAFTDYYIHWVKQRPGQGLEWIGWISPGNVNTKYNENFKGRATLTADLSSSTAYMQLSSLTSEDSAVYFCARDGYSLYYFDYWGQGTTLTVSS VL: DIVMSQSPSSLTVSAGEKVTMSCKSSQSLLNSRTRKNYLAWYQQKPGQSPKLLIYWASTRQSGVPDRFTGSGSGTAFTLTISGVQAEDLAVYFCTQSHTLRTFGGGTKLEIK	0.57 nM	3360 MFI	0.05 A450	0.06 A450	1.46 A450	1.17e-10	0.191 nM	no binding	no binding	0.461 nM	2.82 A450	2.91 A450	0.011 nM	0.012 nM				
WBP3311_2.383.47 (antibody, V domains shown, Mouse monoclonal antibody from hybridoma) VH: QVQLQQSGPELVKPGASVRISCKTSGFTFTNYYIHWVIQRPGQGLEWIGWISPENGNTKYNENFQDKATLTADISSSTAYMHLSSLTSEDSAVYFCARDGYSLYYFDYWGQGTTLTVSS VL: DIVMSQSPSSLTVSAGEKVTMSCKSSQSLLNSRTRKNYLAWYQQKPGQSPKLLIYWASIRVSGVPDRFTGSGSGTTFTLTISGVQAEDLAVYYCTQSHTLRTFGGGTKLEIK	0.91 nM	2130 MFI	0.05 A450	0.05 A450	1.61 A450	1.12e-10	0.403 nM	no binding	no binding		2.76 A450	2.79 A450	0.028 nM	0.074 nM				
WBP331_2.488.33 (antibody, V domains shown, Mouse monoclonal antibody from hybridoma; also called WBP3311_2.488.33; W3311-2.488.33) VH: QVQLQQSGPELVKPGTSVKISCKASGFSFTNYYIHWVKQRPGQGPEWIGWIFPGTVNTKYNEKFKGKATLTADTSSNTAFMQLSSLTSADSAVYFCARDSVGIYYFDFWGLGTTLTVSS VL: DIVMSQSPSSLAVSAGEKVTVSCKSSQSLLNNRTRKNYLAWYQQKPGQSPKLLIYWASTRESGVPDRFTGSGSGTDFTLTISSVQAEDLAVYYCTQSFILRTFGGGTKLEIK	2.97 nM	2270 MFI	0.05 A450	0.06 A450	1.7 A450	1.3e-10	1.32 nM	no binding	no binding		2.83 A450	2.91 A450	0.019 nM	0.026 nM				
WBP3311_2.166.48-z1-uIgG1K (antibody, V domains shown, Humanized antibody; uIgG1K means human IgG1 constant region and kappa light chain; expressed in 293F cells; also called W3311-2.166.48-z1-uIgG1K) VH: QVQLVQSGAEVKKPGSSVKVSCKASGYSFTTYYIHWVRQAPGQGLEWMGWIFPGNDNIKYSEKFKGRVTITADKSTSTAYMELSSLRSEDTAVYYCAIDSVSIYYFDYWGQGTLVTVSS VL: DIVMTQSPDSLAVSLGERATINCKSSQSLLNSRTRKNYLAWYQQKPGQPPKLLIYWASTRKSGVPDRFSGSGSGTDFTLTISSLQAEDVAVYYCTQSFILRTFGGGTKVEIK										1.01 nM							0.043 nM	0.201 nM
WBP3311_2.306.4-z1-uIgG1K (antibody, V domains shown, Humanized antibody; uIgG1K means human IgG1 constant region and kappa light chain; expressed in 293F cells; also called W3311-2.306.4-z1-uIgG1K) VH: QVQLVQSGAEVKKPGSSVKVSCKASGFAFTDYYIHWVRQAPGQGLEWMGWISPGNVNTKYNENFKGRVTITADKSTSTAYMELSSLRSEDTAVYYCARDGYSLYYFDYWGQGTLVTVSS VL: DIVMTQSPDSLAVSLGERATINCKSSQSLLNSRTRKNYLAWYQQKPGQPPKLLIYWASTRQSGVPDRFSGSGSGTDFTLTISSLQAEDVAVYYCTQSHTLRTFGGGTKVEIK										0.253 nM							0.043 nM	0.053 nM

Now from value to binder:

EC50 [1]	MFI (FACS) [1]	ELISA (A450) [2]	ELISA (A450) [3]	ELISA (A450) [4]	Best fit-Bmax [5]	Kd [5]	binding result [6]	binding result [7]	EC50 [8]	ELISA (A450) [9]	ELISA (A450) [10]	EC50 [11]	EC50 [12]	binding result (mouse CD3epsilon protein [13])	ELISA (A450) (mouse CD3epsilon protein [14])	EC50 [15]	Kd [16]	Binder
4.65 nM	2220 MFI	0.05 A450	0.05 A450	1.55 A450	1.2e-10	2.23 nM	no binding	no binding		2.71 A450	2.82 A450	0.025 nM	0.033 nM	no binding	0.471 A450			WBP3311_2.615.8 (antibody, V domains shown, Mouse monoclonal antibody from hybridoma; also called W3311-2.615.8) VH: QVQLQQSGPELVKPGTSMKISCKASGYSFTDFYTHWVRQRPGQGLEWIGWIFPGSDNIKYNEKFKGKATLTADTSSSTAYMQLSSLTSEDSAVYFCARDSVSVYYFDYWGQGTTLTVSS VL: DIVMSQSPSSLAVTAGEKVTMSCKSSQSLLNIRTRKNYLAWYQQKPGQSPKLLIYWASTRDSGVPDRFTGSGSGTDFTLTISSVQAEDLAVYYCTQSFILRTFGGGTKLEIK
0.77 nM	984 MFI	0.06 A450	0.07 A450	1.54 A450	1.19e-10	0.252 nM	no binding	no binding		2.75 A450	2.92 A450	0.009 nM	0.011 nM					WBP3311_2.844.8 (antibody, V domains shown, Mouse monoclonal antibody from hybridoma; also called W3311-2.844.8; clone 2.844.8) VH: QVQLQQSGPELVKPGASVRISCKASGFAFTDYYIHWVKQRPGQGLEWIGWISPGNVNTKYNENFKGRATLTADLSSSTAYMQLSSLTSEDSAVYFCARDGYSLYYFDYWGQGTTLTVSS VL: DIVMSQSPSSLTVSAGEKVTMSCKSSQSLLNSRTRKNYLAWYQQKPGQSPKLLIYWASTRESGVPDRFTGSGSGTAFTLTISGVQAEDLAVYFCTQSHTLRTFGGGTKLEIK
2.5 nM	2740 MFI	0.05 A450	0.05 A450	1.57 A450	1.13e-10	0.934 nM	no binding	no binding		2.79 A450	2.83 A450	0.024 nM	0.053 nM					WBP3311_2.400.5 (antibody, V domains shown, Mouse monoclonal antibody from hybridoma; also called W3311-2.400.5) VH: QVQLQQSGPELVNPGASVKISCKASGYSFTNYYLHWVKQRPGQGLEWIGWIFPESDNTKYNEKLKGKATLTADTSSDTAYMHLSSLTFEDSAVYFCARDSVGNYFFDFWGQGTTLTVSS VL: DIVMSQSPSSLAVSAGEKVTMRCKSSQSLVNNRTRKNYLAWYQQKPGQPPKLLIYWASTRESGVPDRFTGSGSGTDFTLTISSVQAEDLAVYYCAQSFILRTFGGGTKLEIK
3.71 nM	2390 MFI	0.05 A450	0.06 A450	1.33 A450	1.3e-10	2.29 nM	no binding	no binding		2.87 A450	2.95 A450	0.028 nM	0.069 nM					WBP3311_2.482.5 (antibody, V domains shown, Mouse monoclonal antibody from hybridoma; also called W3311-2.482.5) VH: QVQLQQSGPELVKPGSSVKISCKPSGYTFTTYYIHWVKQRPGQGLEWIGWIFPGSDNIKYNENFKDKATLTADTSSSTAYMQLSSLTSEDSAVYFCARDSVSRYYFDYWGQGTILTVSS VL: DIVMSQSPSSLAVSAGEKVTMSCKSSQSLVNDRTRKNYLAWYQQKPGLSPKLLIYWASTRESGVPDRFTGSGSGTDFTLTISSVQAEDLAVYYCAQSFILRTFGGGTKLEIK
